T1: APBA1_1, Q02410
T1 sequence (Q02410 651-752, limits assumed, looked up): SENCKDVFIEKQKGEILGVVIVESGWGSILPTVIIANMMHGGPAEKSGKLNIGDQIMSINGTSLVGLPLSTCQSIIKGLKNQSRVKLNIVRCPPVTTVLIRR

T2: DFNB31_3, Q9P202
T2 sequence (Q9P202 811-907, limits assumed, looked up): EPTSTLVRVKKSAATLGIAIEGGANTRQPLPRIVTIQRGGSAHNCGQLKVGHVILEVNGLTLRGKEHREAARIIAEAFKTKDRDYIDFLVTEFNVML

T3: SHANK1, Q9Y566
T3 sequence (Q9Y566 658-767, limits assumed, looked up): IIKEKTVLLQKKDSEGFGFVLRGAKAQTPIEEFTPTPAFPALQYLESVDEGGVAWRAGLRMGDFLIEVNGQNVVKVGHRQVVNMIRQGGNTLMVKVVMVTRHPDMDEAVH

T4: PTPN13_1, Q12923
T4 sequence (Q12923 1088-1188, limits assumed, looked up): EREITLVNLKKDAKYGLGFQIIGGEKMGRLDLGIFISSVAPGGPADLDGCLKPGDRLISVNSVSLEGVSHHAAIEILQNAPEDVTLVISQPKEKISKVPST

T5: SYNJ2BP, P57105
T5 sequence (P57105 8-110, limits assumed, looked up): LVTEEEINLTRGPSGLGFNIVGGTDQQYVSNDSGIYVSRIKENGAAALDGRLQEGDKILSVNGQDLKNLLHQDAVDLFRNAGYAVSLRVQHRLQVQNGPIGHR

T6: MPDZ_12, O75970
T6 sequence (O75970 1857-1958, limits assumed, looked up): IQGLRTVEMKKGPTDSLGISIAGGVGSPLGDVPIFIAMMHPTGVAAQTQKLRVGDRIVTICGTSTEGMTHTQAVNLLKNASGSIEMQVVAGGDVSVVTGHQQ

T7: APBA2_2, Q99767
T7 sequence (Q99767 654-744, limits assumed, looked up): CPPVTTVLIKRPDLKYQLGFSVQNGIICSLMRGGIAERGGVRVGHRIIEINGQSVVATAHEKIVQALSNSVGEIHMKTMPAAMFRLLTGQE

T8: PDZD7_3, Q9H5P4
T8 sequence (Q9H5P4 857-944, limits assumed, looked up): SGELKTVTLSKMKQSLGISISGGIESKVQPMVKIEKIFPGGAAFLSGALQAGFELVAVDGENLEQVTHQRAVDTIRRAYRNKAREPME

T9: DFNB31_2, Q9P202
T9 sequence (Q9P202 274-371, limits assumed, looked up): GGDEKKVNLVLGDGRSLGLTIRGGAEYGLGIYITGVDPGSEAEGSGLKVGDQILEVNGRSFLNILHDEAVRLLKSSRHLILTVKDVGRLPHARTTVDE

T10: GRIP1_3, Q9Y3R0
T10 sequence (Q9Y3R0 247-346, limits assumed, looked up): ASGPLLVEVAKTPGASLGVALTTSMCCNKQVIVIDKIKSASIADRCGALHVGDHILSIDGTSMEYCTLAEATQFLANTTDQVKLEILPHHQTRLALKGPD

T11: GRIP1_7, Q9Y3R0
T11 sequence (Q9Y3R0 999-1096, limits assumed, looked up): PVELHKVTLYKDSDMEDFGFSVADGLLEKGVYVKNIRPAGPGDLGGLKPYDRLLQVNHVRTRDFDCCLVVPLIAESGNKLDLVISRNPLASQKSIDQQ

T12: MPP6, Q9NZW5
T12 sequence (Q9NZW5 125-219, limits assumed, looked up): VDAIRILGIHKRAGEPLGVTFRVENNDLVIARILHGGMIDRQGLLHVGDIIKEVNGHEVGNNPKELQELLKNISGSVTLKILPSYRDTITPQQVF

B1: NLGN4X, Q8N0W4 (peptide)
chain: LPHGHSTTRV
B2: KIF17, Q9P2E2 (peptide)
chain: SKSNFGSEPL
B3: MYOZ3, Q8TDC0 (peptide)
chain: VRNLPESEEL
B4: MMP24, Q9Y5R2 (peptide)
chain: YYKRPVQEWV
B5: MYOZ2, Q9NPC6 (peptide)
chain: DTTVPESEDL

Key:
Assay in all cases: holdup assay
Set-up in all cases: key: below the threshold = too weak to quantify, mostly under pKd 3.1 to 4
Details in all cases: plain residues with an end cap or a label only (N-terminal biotin on a linker: ado-ado)
APBA1_1, Q02410 = biological target: T1, APBA1_1, Q02410
DFNB31_3, Q9P202 = biological target: T2, DFNB31_3, Q9P202
TJP1_3, Q07157 = biological target: TJP1_3, Q07157
SHANK1, Q9Y566 = biological target: T3, SHANK1, Q9Y566
PTPN13_1, Q12923 = biological target: T4, PTPN13_1, Q12923
SYNJ2BP, P57105 = biological target: T5, SYNJ2BP, P57105
GRIP2_3, Q9C0E4 = biological target: GRIP2_3, Q9C0E4
MAGI1_1, Q96QZ7 = biological target: MAGI1_1, Q96QZ7
PDZRN4_1, Q6ZMN7 = biological target: PDZRN4_1, Q6ZMN7
Inadl_8, Q8NI35 = biological target: Inadl_8, Q8NI35
MAGI1_2, Q96QZ7 = biological target: MAGI1_2, Q96QZ7
MPDZ_12, O75970 = biological target: T6, MPDZ_12, O75970
APBA2_2, Q99767 = biological target: T7, APBA2_2, Q99767
FRMPD2_2, Q68DX3 = biological target: FRMPD2_2, Q68DX3
PDZD7_3, Q9H5P4 = biological target: T8, PDZD7_3, Q9H5P4
GRID2IP_1, A4D2P6 = biological target: GRID2IP_1, A4D2P6
CASK, O14936 = biological target: CASK, O14936
MAST1, Q9Y2H9 = biological target: MAST1, Q9Y2H9
GOPC, Q9HD26 = biological target: GOPC, Q9HD26
DFNB31_2, Q9P202 = biological target: T9, DFNB31_2, Q9P202
DLG4_3, P78352 = biological target: DLG4_3, P78352
NHERF2_2, Q15599 = biological target: NHERF2_2, Q15599
GRIP1_3, Q9Y3R0 = biological target: T10, GRIP1_3, Q9Y3R0
DLG4_2, P78352 = biological target: DLG4_2, P78352
GRIP1_7, Q9Y3R0 = biological target: T11, GRIP1_7, Q9Y3R0
MPP6, Q9NZW5 = biological target: T12, MPP6, Q9NZW5

Sequence of MAST1, Q9Y2H9 (Q9Y2H9 962-1065): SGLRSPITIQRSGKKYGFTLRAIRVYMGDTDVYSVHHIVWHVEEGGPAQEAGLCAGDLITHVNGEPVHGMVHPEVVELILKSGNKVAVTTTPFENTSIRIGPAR
Sequence of NHERF2_2, Q15599 (Q15599 142-238): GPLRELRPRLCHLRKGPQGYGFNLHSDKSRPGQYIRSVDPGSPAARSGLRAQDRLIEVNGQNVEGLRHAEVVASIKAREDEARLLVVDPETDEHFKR
Sequence of GRID2IP_1, A4D2P6 (A4D2P6 1-87): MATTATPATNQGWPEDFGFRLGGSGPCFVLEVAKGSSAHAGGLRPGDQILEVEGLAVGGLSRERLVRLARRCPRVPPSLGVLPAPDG
Sequence of GRIP2_3, Q9C0E4 (Q9C0E4 238-339): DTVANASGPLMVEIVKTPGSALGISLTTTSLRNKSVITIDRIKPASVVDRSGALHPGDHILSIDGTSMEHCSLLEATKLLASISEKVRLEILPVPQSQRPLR
Sequence of DLG4_2, P78352 (P78352 155-259): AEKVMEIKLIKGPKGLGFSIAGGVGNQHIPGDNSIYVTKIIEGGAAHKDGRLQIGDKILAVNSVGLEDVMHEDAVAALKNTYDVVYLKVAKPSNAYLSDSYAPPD
Sequence of FRMPD2_2, Q68DX3 (Q68DX3 944-1038): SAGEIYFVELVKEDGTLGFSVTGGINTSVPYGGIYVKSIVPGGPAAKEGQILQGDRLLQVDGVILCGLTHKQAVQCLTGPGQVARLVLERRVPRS
Sequence of PDZRN4_1, Q6ZMN7 (Q6ZMN7 213-318): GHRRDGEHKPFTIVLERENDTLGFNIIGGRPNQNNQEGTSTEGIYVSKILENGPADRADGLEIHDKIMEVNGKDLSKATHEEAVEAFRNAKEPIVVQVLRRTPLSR
Sequence of Inadl_8, Q8NI35 (Q8NI35 1425-1530): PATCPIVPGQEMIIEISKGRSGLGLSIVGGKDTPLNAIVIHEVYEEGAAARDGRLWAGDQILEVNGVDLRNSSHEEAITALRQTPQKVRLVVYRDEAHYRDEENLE
Sequence of DLG4_3, P78352 (P78352 306-403): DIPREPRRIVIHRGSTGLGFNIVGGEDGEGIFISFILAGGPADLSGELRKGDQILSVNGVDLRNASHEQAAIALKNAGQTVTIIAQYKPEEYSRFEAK
Sequence of TJP1_3, Q07157 (Q07157 416-512): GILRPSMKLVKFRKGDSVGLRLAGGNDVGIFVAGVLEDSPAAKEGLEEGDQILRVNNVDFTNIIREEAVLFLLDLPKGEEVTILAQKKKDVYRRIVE
Sequence of MAGI1_1, Q96QZ7 (Q96QZ7 1-106): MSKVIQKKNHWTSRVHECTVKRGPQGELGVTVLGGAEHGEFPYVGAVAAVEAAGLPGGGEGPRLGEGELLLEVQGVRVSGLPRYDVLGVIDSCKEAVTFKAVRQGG
Sequence of MAGI1_2, Q96QZ7 (Q96QZ7 456-580): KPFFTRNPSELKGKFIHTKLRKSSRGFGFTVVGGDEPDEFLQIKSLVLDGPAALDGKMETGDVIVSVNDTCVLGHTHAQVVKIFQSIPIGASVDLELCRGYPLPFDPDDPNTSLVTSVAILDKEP
Sequence of CASK, O14936 (O14936 487-570): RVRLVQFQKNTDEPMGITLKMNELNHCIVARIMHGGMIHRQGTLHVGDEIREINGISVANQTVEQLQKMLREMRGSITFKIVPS

Binder | pKd (APBA1_1, Q02410) | pKd (DFNB31_3, Q9P202) | pKd (TJP1_3, Q07157) | pKd (SHANK1, Q9Y566) | pKd (PTPN13_1, Q12923) | pKd (SYNJ2BP, P57105) | pKd (GRIP2_3, Q9C0E4) | pKd (MAGI1_1, Q96QZ7) | pKd (PDZRN4_1, Q6ZMN7) | pKd (Inadl_8, Q8NI35) | pKd (MAGI1_2, Q96QZ7) | pKd (MPDZ_12, O75970) | pKd (APBA2_2, Q99767) | pKd (FRMPD2_2, Q68DX3) | pKd (PDZD7_3, Q9H5P4) | pKd (GRID2IP_1, A4D2P6) | pKd (CASK, O14936) | pKd (MAST1, Q9Y2H9) | pKd (GOPC, Q9HD26) | pKd (DFNB31_2, Q9P202) | further results
B1 | below the threshold | 3.96 | below the threshold | 4.88 | below the threshold | 3.9 | below the threshold | below the threshold | below the threshold | 4.33 | 4.23 | below the threshold | below the threshold | 3.63 | 4.28 | below the threshold | below the threshold | 4.7 | 4.37 | below the threshold | pKd (DLG4_3, P78352): 4.04; pKd (NHERF2_2, Q15599): 3.78; pKd (GRIP1_3, Q9Y3R0): below the threshold; pKd (DLG4_2, P78352): 3.97; pKd (GRIP1_7, Q9Y3R0): below the threshold; pKd (MPP6, Q9NZW5): below the threshold
B2 | below the threshold | below the threshold | below the threshold | below the threshold | below the threshold | below the threshold | below the threshold | below the threshold | below the threshold | below the threshold | below the threshold | below the threshold | below the threshold | below the threshold | below the threshold | below the threshold | below the threshold | 3.61 | below the threshold | below the threshold | pKd (DLG4_3, P78352): below the threshold; pKd (NHERF2_2, Q15599): below the threshold; pKd (GRIP1_3, Q9Y3R0): below the threshold; pKd (DLG4_2, P78352): below the threshold; pKd (GRIP1_7, Q9Y3R0): below the threshold; pKd (MPP6, Q9NZW5): 3.66
B3 | below the threshold | below the threshold | below the threshold | below the threshold | below the threshold | below the threshold | below the threshold | below the threshold | below the threshold | below the threshold | below the threshold | below the threshold | below the threshold | below the threshold | 3.74 | below the threshold | below the threshold | 4.11 | below the threshold | below the threshold | pKd (DLG4_3, P78352): below the threshold; pKd (NHERF2_2, Q15599): 3.64; pKd (GRIP1_3, Q9Y3R0): below the threshold; pKd (DLG4_2, P78352): below the threshold; pKd (GRIP1_7, Q9Y3R0): below the threshold; pKd (MPP6, Q9NZW5): 3.64
B4 | 3.48 | 3.63 | 4.34 | below the threshold | below the threshold | 3.91 | 3.48 | 3.48 | below the threshold | 3.69 | below the threshold | 4.39 | below the threshold | below the threshold | below the threshold | below the threshold | below the threshold | below the threshold | below the threshold | below the threshold | pKd (DLG4_3, P78352): below the threshold; pKd (NHERF2_2, Q15599): below the threshold; pKd (GRIP1_3, Q9Y3R0): below the threshold; pKd (DLG4_2, P78352): 4.03; pKd (GRIP1_7, Q9Y3R0): 3.71; pKd (MPP6, Q9NZW5): below the threshold
B5 | below the threshold | below the threshold | below the threshold | below the threshold | below the threshold | below the threshold | below the threshold | below the threshold | below the threshold | below the threshold | below the threshold | below the threshold | below the threshold | below the threshold | below the threshold | below the threshold | below the threshold | 4.21 | below the threshold | below the threshold | pKd (DLG4_3, P78352): below the threshold; pKd (NHERF2_2, Q15599): 4.27; pKd (GRIP1_3, Q9Y3R0): below the threshold; pKd (DLG4_2, P78352): below the threshold; pKd (GRIP1_7, Q9Y3R0): below the threshold; pKd (MPP6, Q9NZW5): below the threshold

Source: publication PMC9482650, “Quantitative fragmentomics allow affinity mapping of interactomes” (Nature Communications, 2022)
